Assays:
[1] = target: T1, Muscarinic M3 (Homo sapiens, UniProt P20309); assay: Off-target screening (Eurofins Cerep), M3; type: binding
T1 construct: Eurofins Cerep SA (contract screening)

[2] = tested on: BxPC-3 tumors and organs; assay: Ex vivo biodistribution, BxPC-3 model; type: in vivo, mice; conditions: 4 h post injection
Experimental: After imaging, mice were sacrificed and OSC-19 and BxPC-3 tumors were quickly frozen in isopentane at -80°C for histological evaluation. Tissues were sectioned at 10 μm and fluorescence imaging was performed using fluorescence microscopy (Nikon eclipse e800, Nikon, Amsterdam, The Netherlands). All histologic sections were stained with standard hematoxylin-eosin stain (HE). Organs of mice with colorectal and pancreatic cancer were collected and imaged using the Pearl® to evaluate biodistribution.
Mice were administered with 0.25 (HT-29 model only), 1.0, 10, or 30 nmol cRGD-ZW800-1 to evaluate tumor signals, biodistribution, and to calculate TBRs (n = 3 per dose group). At 4 h (BxPC-3 model) and 24 h (HT-29 model) after injection, mice were fully dissected and fluorescence intensity of their organs was measured.
Mice bearing orthotopic OSC-19 tumors (n = 2) were administrated with 10 nmol cRGD-ZW800-1 and imaged at 4 h. Mice bearing orthotopic MCF-7 tumors (n = 2) were injected with 10 nmol cRGD-ZW800-1 and imaged at 0.5, 1, 2, 4, 6, 8, 24, and 48 h post injection. One mouse with 2 MCF-7 tumors was administered with 10 nmol cRGD-ZW800-1 and imaged at 4 h post injection while its skin was partially removed. In vivo TBRs were calculated by dividing the mean fluorescence signals of tumors by the mean of surrounding tissue. Ex vivo organ-to-tumor ratios were calculated by dividing the fluorescence intensity of the organ by that of the tumor.

[3] = target: T2, PDE4D2 (Homo sapiens, UniProt Q08499); assay: Off-target screening (Eurofins Cerep), PDE4D2; type: biochemical
T2 construct: Eurofins Cerep SA (contract screen)

[4] = Toxicology study in rats (unpublished data)
[5] = target: T3, Muscarinic M1 (Homo sapiens, UniProt P11229); assay: biochemical; type: binding
T3 construct: Eurofins Cerep SA (contract screening)

[6] = target: T4, Acetylcholinesterase (Homo sapiens, UniProt P22303); assay: Off-target screening (Eurofins Cerep), acetylcholinesterase; type: biochemical
T4 construct: Eurofins Cerep SA (contract screen)

[7] = target: T5, Dopamine transporter (Homo sapiens, UniProt Q01959); assay: Off-target screening (Eurofins Cerep), dopamine transporter; type: binding
T5 construct: Eurofins Cerep SA (contract screening)

[8] = target: T6, PDE3A (Homo sapiens, UniProt Q14432); assay: Off-target screening (Eurofins Cerep), PDE3A; type: biochemical
T6 construct: Eurofins Cerep SA (contract screen)

[9] = tested on: tumors; assay: Estimated concentration inside tumors in humans; conditions: after administering 63 μg/kg, assuming tumor uptake comparable to RGD-PET tracer
[10] = Pharmacokinetics in mice without tumors; type: in vivo
Experimental: cRGD-ZW800-1 was diluted in 0.05 mM HEPES buffered mouse serum to the concentrations 5.00, 4.50, 4.00, 3.50, 3.00, 2.50, 2.00, 1.50, 1.00, 0.50, 0.25, 0.13, 0.06, 0.03, and 0.02 μM. A calibration curve was created by measuring each concentration in 60 μL capillary tubes (Hirschmann® Laborgeräte GmbH and co. KG, Eberstadt, Germany) using the FLARE® with exposure times of: 1, 2, 5, 10, 25, 50, 100, 200, 500, 1000, and 2000 msec. Data were plotted in fluorescence intensity over concentration (μM) (Supplementary Figure 2, Supplementary Data). For each exposure time, the formula of the linear regression line was calculated. Subsequently, 5 mice without tumors were injected with 10 nmol cRGD-ZW800-1 via the lateral tail vein. The contralateral lateral tail vein was used to draw blood on the time points -5, 1, 6, 10, 20, 30, 40, 50, 60, 90, 120, and 240 min. post injection. Blood samples were absorbed using 60 μL capillary tubes and immediately measured using the FLARE® with the same exposure times. Saturated images and those under the detection limit were excluded from analysis. Each measurement was calculated back to its concentration using the matching formulas (Supplementary Figure 3, Supplementary Data). The mean of each formula output was used as the concentration. Data was analyzed using NONMEM® software (Icon Development Solutions, Ellicott City, MD, U.S.A.). Data were plotted in logarithmic and linear concentration (μM) over time (min).

[11] = target: T7, Opioid µ (MOP) (Homo sapiens, UniProt P35372); assay: Off-target screening (Eurofins Cerep), µ (MOP); type: binding
T7 construct: Eurofins Cerep SA (contract screening)

[12] = target: T8, COX1 (Homo sapiens, UniProt P23219); assay: Off-target screening (Eurofins Cerep), COX1; type: biochemical
T8 construct: Eurofins Cerep SA (contract screen)

[13] = target: T9, Cannabinoid CB1 (Homo sapiens, UniProt P21554); assay: Off-target screening (Eurofins Cerep), CB1; type: binding
T9 construct: Eurofins Cerep SA (contract screening)

[14] = read-out: % Inhibition of Control Specific Binding
[15] = read-out: % of Control Specific Binding Mean
[16] = 10 μM cRGD-ZW800-1, format H, performed twice, read-out: % Inhibition of Control Specific Binding
[17] = 10 μM, mean of 2, read-out: % of Control Specific Binding Mean
[18] = mice, 10 nmol i.v., mean ± SD, n = 5
[19] = 10 μM cRGD-ZW800-1, format H, Ag, performed twice, read-out: % Inhibition of Control Specific Binding

T5 sequence (Q01959 whole entry): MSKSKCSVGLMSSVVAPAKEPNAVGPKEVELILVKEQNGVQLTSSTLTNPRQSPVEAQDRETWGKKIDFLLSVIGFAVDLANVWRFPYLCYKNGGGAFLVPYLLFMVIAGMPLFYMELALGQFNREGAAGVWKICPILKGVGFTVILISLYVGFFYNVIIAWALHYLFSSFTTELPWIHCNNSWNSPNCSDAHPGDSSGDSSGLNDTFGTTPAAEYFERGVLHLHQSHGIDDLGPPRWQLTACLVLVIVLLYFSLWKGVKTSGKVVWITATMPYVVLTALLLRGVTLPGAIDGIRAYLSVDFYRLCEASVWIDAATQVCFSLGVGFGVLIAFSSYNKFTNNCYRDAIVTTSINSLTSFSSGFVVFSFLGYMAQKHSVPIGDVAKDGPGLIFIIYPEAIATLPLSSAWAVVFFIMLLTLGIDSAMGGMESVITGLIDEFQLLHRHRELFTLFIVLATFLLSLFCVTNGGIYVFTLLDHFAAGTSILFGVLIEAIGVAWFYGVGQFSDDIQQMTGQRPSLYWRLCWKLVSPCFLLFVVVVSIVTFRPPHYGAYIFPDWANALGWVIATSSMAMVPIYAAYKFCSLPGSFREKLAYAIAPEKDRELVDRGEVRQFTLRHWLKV
T2 sequence (Q08499 303-809): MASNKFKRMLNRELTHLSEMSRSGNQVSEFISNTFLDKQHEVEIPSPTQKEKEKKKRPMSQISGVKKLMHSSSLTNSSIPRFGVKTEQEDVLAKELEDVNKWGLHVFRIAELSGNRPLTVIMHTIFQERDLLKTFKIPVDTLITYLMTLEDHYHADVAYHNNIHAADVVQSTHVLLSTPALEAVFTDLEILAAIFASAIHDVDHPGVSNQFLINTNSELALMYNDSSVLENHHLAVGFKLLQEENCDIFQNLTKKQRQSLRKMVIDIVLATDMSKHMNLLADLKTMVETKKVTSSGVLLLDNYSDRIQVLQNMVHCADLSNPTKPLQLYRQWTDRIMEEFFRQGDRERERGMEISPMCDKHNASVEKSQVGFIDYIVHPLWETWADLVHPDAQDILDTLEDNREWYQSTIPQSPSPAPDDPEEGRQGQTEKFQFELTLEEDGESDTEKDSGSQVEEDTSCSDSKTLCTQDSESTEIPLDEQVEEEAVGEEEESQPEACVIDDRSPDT
T8 sequence (P23219 24-599): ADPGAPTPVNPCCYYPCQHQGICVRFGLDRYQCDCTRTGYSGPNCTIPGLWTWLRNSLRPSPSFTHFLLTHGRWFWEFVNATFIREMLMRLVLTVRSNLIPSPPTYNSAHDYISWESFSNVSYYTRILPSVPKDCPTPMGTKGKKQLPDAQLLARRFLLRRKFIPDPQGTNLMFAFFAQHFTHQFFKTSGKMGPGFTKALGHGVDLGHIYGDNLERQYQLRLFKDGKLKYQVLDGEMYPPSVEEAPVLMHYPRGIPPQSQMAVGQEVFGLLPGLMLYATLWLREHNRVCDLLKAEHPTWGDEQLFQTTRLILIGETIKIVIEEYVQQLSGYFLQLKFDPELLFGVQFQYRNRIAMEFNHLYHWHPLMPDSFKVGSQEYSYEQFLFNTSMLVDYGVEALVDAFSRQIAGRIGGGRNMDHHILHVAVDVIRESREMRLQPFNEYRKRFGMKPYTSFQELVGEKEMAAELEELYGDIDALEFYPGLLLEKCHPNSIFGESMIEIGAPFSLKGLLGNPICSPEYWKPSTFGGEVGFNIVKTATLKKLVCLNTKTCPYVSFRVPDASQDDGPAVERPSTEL
T9 sequence (P21554 whole entry): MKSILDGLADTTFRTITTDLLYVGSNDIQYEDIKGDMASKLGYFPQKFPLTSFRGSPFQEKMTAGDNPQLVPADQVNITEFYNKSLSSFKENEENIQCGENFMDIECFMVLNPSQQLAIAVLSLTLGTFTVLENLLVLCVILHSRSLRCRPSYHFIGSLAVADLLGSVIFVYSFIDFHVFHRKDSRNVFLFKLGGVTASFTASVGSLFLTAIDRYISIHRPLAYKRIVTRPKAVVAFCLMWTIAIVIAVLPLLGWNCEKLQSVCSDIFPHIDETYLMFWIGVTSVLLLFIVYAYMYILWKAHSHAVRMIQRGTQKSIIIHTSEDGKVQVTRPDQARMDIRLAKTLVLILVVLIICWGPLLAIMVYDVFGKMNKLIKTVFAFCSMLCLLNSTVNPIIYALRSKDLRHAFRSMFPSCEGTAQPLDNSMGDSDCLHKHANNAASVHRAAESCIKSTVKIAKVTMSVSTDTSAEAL
T4 sequence (P22303 32-614): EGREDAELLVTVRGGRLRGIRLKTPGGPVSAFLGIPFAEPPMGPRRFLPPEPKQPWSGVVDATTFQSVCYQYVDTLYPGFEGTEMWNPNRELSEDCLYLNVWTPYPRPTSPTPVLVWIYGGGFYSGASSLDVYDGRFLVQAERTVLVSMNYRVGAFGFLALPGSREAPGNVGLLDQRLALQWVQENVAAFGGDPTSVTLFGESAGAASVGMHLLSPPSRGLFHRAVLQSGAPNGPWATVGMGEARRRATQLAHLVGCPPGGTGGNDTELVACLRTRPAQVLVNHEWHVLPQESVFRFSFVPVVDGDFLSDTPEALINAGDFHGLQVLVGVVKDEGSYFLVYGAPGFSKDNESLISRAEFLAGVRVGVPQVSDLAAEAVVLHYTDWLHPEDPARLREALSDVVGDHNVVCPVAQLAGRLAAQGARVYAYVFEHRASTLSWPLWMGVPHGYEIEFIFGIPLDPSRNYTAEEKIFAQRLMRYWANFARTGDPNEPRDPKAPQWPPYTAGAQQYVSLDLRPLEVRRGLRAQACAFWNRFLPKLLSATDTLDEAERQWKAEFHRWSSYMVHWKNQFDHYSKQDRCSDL
T6 sequence (Q14432 whole entry): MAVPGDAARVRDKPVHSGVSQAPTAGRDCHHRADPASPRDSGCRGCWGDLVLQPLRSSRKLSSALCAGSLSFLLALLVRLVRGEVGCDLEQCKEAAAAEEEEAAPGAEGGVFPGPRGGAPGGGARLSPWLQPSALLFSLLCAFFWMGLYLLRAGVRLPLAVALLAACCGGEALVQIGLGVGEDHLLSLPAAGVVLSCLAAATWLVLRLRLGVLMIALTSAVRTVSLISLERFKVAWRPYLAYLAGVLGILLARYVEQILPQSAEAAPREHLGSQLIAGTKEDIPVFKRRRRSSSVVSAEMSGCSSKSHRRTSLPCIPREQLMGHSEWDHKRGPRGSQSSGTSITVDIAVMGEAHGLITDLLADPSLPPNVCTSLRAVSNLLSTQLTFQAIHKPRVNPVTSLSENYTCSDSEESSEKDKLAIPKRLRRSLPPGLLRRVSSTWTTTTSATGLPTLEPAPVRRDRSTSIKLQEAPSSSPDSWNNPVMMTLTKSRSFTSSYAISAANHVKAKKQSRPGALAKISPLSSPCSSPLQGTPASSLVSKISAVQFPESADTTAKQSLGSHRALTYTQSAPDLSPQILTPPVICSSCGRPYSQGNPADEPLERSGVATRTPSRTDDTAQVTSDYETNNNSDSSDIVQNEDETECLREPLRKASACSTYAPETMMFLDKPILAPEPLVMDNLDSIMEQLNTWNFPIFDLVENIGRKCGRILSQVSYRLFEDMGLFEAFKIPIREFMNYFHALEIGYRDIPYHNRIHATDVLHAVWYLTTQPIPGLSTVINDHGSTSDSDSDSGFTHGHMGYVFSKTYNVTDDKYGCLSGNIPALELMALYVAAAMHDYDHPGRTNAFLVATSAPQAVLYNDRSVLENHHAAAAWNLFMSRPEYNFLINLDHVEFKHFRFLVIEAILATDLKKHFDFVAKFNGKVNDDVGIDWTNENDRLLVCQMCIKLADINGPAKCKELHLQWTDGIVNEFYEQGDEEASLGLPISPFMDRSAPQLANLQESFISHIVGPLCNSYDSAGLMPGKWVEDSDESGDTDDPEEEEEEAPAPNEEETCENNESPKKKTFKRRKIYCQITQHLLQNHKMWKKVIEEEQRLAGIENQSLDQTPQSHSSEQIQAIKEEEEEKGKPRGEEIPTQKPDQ
T1 sequence (P20309 whole entry): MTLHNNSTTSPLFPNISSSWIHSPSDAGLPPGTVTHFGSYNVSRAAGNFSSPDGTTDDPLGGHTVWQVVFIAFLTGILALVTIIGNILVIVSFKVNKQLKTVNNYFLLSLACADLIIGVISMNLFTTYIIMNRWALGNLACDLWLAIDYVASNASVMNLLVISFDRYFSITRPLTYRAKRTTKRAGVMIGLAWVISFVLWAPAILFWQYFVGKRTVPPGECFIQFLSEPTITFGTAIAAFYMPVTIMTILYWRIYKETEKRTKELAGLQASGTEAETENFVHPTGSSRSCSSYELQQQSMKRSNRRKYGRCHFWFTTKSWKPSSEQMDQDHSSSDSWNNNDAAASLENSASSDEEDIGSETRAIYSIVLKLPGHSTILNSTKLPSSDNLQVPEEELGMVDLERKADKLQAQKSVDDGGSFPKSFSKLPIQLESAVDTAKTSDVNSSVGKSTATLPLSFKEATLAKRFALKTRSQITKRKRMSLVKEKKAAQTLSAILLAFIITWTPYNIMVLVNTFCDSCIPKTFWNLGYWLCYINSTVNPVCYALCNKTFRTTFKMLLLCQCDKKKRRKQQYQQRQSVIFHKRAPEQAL
T3 sequence (P11229 whole entry): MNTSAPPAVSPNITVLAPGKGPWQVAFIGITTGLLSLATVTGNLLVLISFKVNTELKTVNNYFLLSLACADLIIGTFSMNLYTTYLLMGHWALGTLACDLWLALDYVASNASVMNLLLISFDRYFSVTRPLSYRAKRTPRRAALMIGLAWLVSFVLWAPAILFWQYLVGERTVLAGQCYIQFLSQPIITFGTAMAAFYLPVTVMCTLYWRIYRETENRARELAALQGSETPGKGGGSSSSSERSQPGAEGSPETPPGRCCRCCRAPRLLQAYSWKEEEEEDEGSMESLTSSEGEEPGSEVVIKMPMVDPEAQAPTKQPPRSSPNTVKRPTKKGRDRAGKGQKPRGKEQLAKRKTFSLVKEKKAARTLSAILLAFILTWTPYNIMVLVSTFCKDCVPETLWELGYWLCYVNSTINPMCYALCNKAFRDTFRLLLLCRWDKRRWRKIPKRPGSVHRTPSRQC

Question: With `CC1(C)C(/C=C/C2=C(Oc3ccc(CCC(=O)NCCCC[C@@H]4NC(=O)[C@@H](Cc5ccc(O)cc5)NC(=O)[C@H](CC(=O)O)NC(=O)CNC(=O)[C@H](CCCNC(=N)N)NC4=O)cc3)C(=C/C=C3/N(CCC[N+](C)(C)C)c4ccc(S(=O)(=O)O)cc4C3(C)C)/CCC2)=[N+](CCC[N+](C)(C)C)c2ccc(S(=O)(=O)O)cc21` [cRGD-ZW800-1] as the compound, how does the inhibition at 10 µM [1, 14] read?
Answer: -7%

Question: And the remaining activity at 10 µM [1, 15]?
Answer: 107%

Question: What about the “tumor fluorescence relative to skin, intestines, lungs, muscle, gallbladder, brain, and blood” value ([2]; all doses, ex vivo, Pearl) of the same compound?
Answer: at least twice as fluorescent

Question: What about the “fluorescence signals in kidneys relative to tumors” value ([2]; ex vivo) of the same compound?
Answer: equal to or higher than tumors

Question: And the “fluorescence ratios of large intestines and liver compared with tumors” value ([2]; ex vivo organ-to-tumor ratio)?
Answer: around half

Question: What about the inhibition at 10 µM [3, 14] of the same compound?
Answer: 10%

Question: And the remaining activity at 10 µM [3, 15]?
Answer: 90.3%

Question: What about the “safe starting dose for first in-human studies” value ([4]; 10% of the HED of the NOAEL (FDA recommendation)) of the same compound?
Answer: 0.08 mg/kg

Question: What about the “human equivalent dose (HED) of the NOAEL” value ([4]; NOAEL of 5.0 mg/kg in rats adjusted for body surface area) of the same compound?
Answer: 0.80 mg/kg

Question: What about the toxicology findings ([4]; rats, intravenous injection of 5.0 mg/kg, unpublished data) of the same compound?
Answer: neither clinical symptoms, nor treatment-related histopathological, biochemical, and hematological abnormalities

Question: And the “no observable adverse event level (NOAEL)” value ([4]; rats, intravenous injection, unpublished data)?
Answer: at least 5.0 mg/kg

Question: What about the inhibition at 10 µM [5, 14] of the same compound?
Answer: 5%

Question: What about the remaining activity at 10 µM [5, 15] of the same compound?
Answer: 95.5%

Question: What about the inhibition at 10 µM [6, 16] of the same compound?
Answer: 2%

Question: And the remaining activity at 10 µM [6, 17]?
Answer: 98.4%

Question: What about the inhibition at 10 µM ([7]; 10 μM cRGD-ZW800-1, format H, An, performed twice, read-out: % Inhibition of Control Specific Binding) of the same compound?
Answer: 5%

Question: What about the remaining activity at 10 µM [7, 17] of the same compound?
Answer: 95%

Question: What about the inhibition at 10 µM [8, 16] of the same compound?
Answer: -12%

Question: What about the remaining activity at 10 µM [8, 17] of the same compound?
Answer: 112%

Question: What about the concentration inside tumors [9] of the same compound?
Answer: approximately 0.2 μM

Question: And the Clearance ([10]; mice, 10 nmol i.v., mean systemic clearance ± SD, n = 5)?
Answer: 0.25 ± 0.06 mL/min

Question: What about the “Distribution (α) half-life” value [10, 18] of the same compound?
Answer: 0.243 ± 0.0283 h

Question: And the “Terminal (β) half-life” value [10, 18]?
Answer: 1.18 ± 0.157 h

Question: And the “maximal concentration in serum” value ([10]; mice, 10 nmol i.v., measured at 1 minute post injection, n = 5, fluorescence (FLARE) with calibration curve)?
Answer: 1.17 µM

Question: And the AUC ([10]; mice, 10 nmol i.v., trapezoid rule, mean ± SD, n = 5)?
Answer: 38.9 ± 8.9

Question: What about the Half-life ([10]; mice, blood, 10 nmol i.v., calculated via ln(2)/k10, mean ± SD, n = 5) of the same compound?
Answer: 0.422 ± 0.107 h

Question: And the “Elimination (β) half-life” value ([10]; mouse no. 1)?
Answer: 1.08 h

Question: What about the “Elimination (β) half-life” value ([10]; mouse no. 2) of the same compound?
Answer: 1.42 h

Question: What about the “Elimination (β) half-life” value ([10]; mouse no. 3) of the same compound?
Answer: 1.14 h

Question: What about the “Elimination (β) half-life” value ([10]; mouse no. 4) of the same compound?
Answer: 1.25 h

Question: What about the “Elimination (β) half-life” value ([10]; mouse no. 5) of the same compound?
Answer: 1.03 h

Question: What about the inhibition at 10 µM [11, 19] of the same compound?
Answer: 10%

Question: What about the remaining activity at 10 µM [11, 17] of the same compound?
Answer: 90.3%

Question: What about the inhibition at 10 µM [12, 16] of the same compound?
Answer: -8%

Question: What about the remaining activity at 10 µM [12, 17] of the same compound?
Answer: 108%

Question: What about the inhibition at 10 µM [13, 19] of the same compound?
Answer: -6%

Question: And the remaining activity at 10 µM [13, 17]?
Answer: 106%
